The supplement of paper PMC12636428

System: Saccharomyces cerevisiae
Test: transcriptional activation domain activity (GFP:mCherry ratio, weighted mean of sorted bins, harmonized to initial dataset scale) (arbitrary fluorescence ratio units); higher = stronger transcriptional activation
Conditions: beta-estradiol 1 µM; induction time 4 h
How it was run: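 After a 1:5 dilution into SC with 1 uM beta-estradiol and 4 hours at 30 °C, yeast diploids carrying a GFP reporter and URA3-integrated barcoded tiles were sorted into 8 bins by GFP:mCherry ratio. The tiles were fused to an estradiol-inducible synthetic transcription factor. Barcodes were sequenced, tiles below 50 reads were discarded, and activation activity was taken as the read-weighted mean of bin median fluorescence, averaged across barcodes and linearly mapped onto the initial dataset scale.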

NILKLPSMVDGSQHCDISKFIVAAAHKIVTPDVSPRGWVLLKLLRSYIELDMY
transcriptional activation domain activity: 29100

PFTELFRRFLFSNIRFTSKVTIISYIGTYYAIGAAWIMTTANYFAIGWFNGYL
transcriptional activation domain activity: 46500

VVTRWILFIVPMLGIVWIPGILSLTTFPHATVWGVKLIWWSIWLSVVWGGWWV
transcriptional activation domain activity: 38300

SLFLSFFIFPLFLFFYFFSFFFDLFIVCMVHLFLGKDLYLFGYQKVLFCFCLC
transcriptional activation domain activity: 65700

MRDNQYPPYLLSVVHFTCQPPFGVRNLHSPIFILFQYVPHVLLIHFSSFVIFF
transcriptional activation domain activity: 64300

SITILVNIFLLHGSVKFIQKCLQYIGYIAEEVRSSLPLHKCLYWPLLIMLRLL
transcriptional activation domain activity: 45200

SFIHSLLYAFLSFFPHLFISYFLSSFYYLSTHLFLSFFPFLVILFTSCYQNLS
transcriptional activation domain activity: 57700

ANRIAIRLFHFLLECPDEMTRLVAIKKYIKNTYMIPTYLVTVNCILRLAGYWK
transcriptional activation domain activity: 55900

QREARKEHIKSLVAPGLPFLSIDTYKDLNDKWVLKGVFRGLLVLRGLAHHLRT
transcriptional activation domain activity: 63100

VLPVRFPKDCDQVFIACAVDCAELWRPGWKANIWVISHRRMIVSTVHIRHLSR
transcriptional activation domain activity: 48200

MVVILYFFFYIFIKNRLGLVRVIFLFLVYHIQLLVLFFFGPFLPLVLLLLLLL
transcriptional activation domain activity: 35900

TEETPHDLPKNTAKGRDEEDFPLDYFPVSVEYPTEENAFDPFPPQAFTPAAPS
transcriptional activation domain activity: 42500

SCIVLYACSKIIIYLFLMEKVYVVTAVGATRANFMLYRINLSLLIPYVGIFAL
transcriptional activation domain activity: 52300

MRQCCRCGDALKRCVILAVIAFGSVPPVYVGLVACARCRVWLFSPGLLYLKWF
transcriptional activation domain activity: 55500

MGCILIFIFTFPYTPSFPFPFWFLFFVFLSFSFSFQKFLVFSFLSFVWVTVGR
transcriptional activation domain activity: 51700

SVYALVHFGAFYRSSHGPIRMLALHIQAFYNLCSLLFSWFAIANLWLTFSIII
transcriptional activation domain activity: 67600

EADGERRSNGGSAGPRAGRRGGRDRDDRKGKPSKDSKARGEKSSEEKIGSNKE
transcriptional activation domain activity: 47500

MTFLPFSLFAFLFRCLLFFLAIFRLRYALFLFLFFSFLYLYPFYLHILHIVAY
transcriptional activation domain activity: 52600

SAKSLRLTVDEVKMLHRPALWYLIVGLVDTVAAARLRYFSFILHRPPLRQTLS
transcriptional activation domain activity: 47800

KADDGGGDEAEKPKKATSKKPKKENDDAMDVDEEAQERPKPKPRPKPKPKAKE
transcriptional activation domain activity: 22000

SKGAKKDAGPRGAVRRAKKKGGVEPEKKKREKDGGSREKSRSSSKKEKGGFER
transcriptional activation domain activity: 15200

EKKVKAPKSPKKEKKKEEAEAAAPATEEPAKDEEPAAAEAPAAEEAPKEEAAA
transcriptional activation domain activity: 41200

VRSRALLFVFKYYFFLVYFVFYRNLFARLRSFDQFALVQLLSSFWVCIWYPFS
transcriptional activation domain activity: 48400

KDATGDDAARARGGDKGGEREKAGGKGGRRGPKEKEKGKQKAKESKGAAGFAE
transcriptional activation domain activity: 55600

GCDYVFSMYVLGAGLWLFIFYLPPIVFSIVCLCYLTLIWAVSWVLLWCLIFIL
transcriptional activation domain activity: 53900

DYSIAQFRFLLKLLLVHGRWNYMRACKYTLGTFWKEMLFYLTQALYQRWNGYT
transcriptional activation domain activity: 64700

EHVFLVYFFIFTMQEFAGELVSLVDVMRRIYSLDQARANRAHWWKWIFRCWLH
transcriptional activation domain activity: 58900

MEACMSIMMIPMILRNGTVFSFFFRVMLYFTCIVSMAGWLVPGSYWLWFGLVC
transcriptional activation domain activity: 48100

IIFYLIISIIIIIILLLFYYYLLFIIMFFIQDVGCWLLLWCFVGLFELLLQLL
transcriptional activation domain activity: 28700

WHTDLGIPSFGWTLLHELEGLLGRIEANWMEEVTVRTIVLLTSRLLSAVRDHD
transcriptional activation domain activity: 55200

MFMGTLWLVIFHYGWAFFLDYCVWYFMISLCFWCEVCLPVLLPAFHVCCLLWC
transcriptional activation domain activity: 52400

WLAHSKKKTCDVCKHPYSFTKVYATDMPTRLPPVLLLRRVAQQSFFAMIFAVR
transcriptional activation domain activity: 35900

HCNGLLGNADLFEDPYQDELTSELHVLVTERLVNSWKDTILQQLCSCQDTTLS
transcriptional activation domain activity: 83700

TVDSLLTFVPFFLLTLLFLLISLFLFILFFLIFFFLFIPFSSFLFIYFSLSFH
transcriptional activation domain activity: 32200

VGGEANGEVVKRKSKKKGGKEETDTEVVDGEDQSSRKVATRKLSRGKAEKKAK
transcriptional activation domain activity: 48900

FPTLGFVVDRYFRVTNFVPETFWSIKVVHKKDSINVNFNWKRGHLFDRMTVTV
transcriptional activation domain activity: 71400

MIVLVLLFLVFCLLLLVGMVDERGMAGDMYKLYRTPASCRVLALSNPIVRGAW
transcriptional activation domain activity: 52800

GDQGAGRRDRRRRLGHRGGGEGRGREEGEEGRRDGEGRHRGEGGREEGEEEDR
transcriptional activation domain activity: 14300

TQPIDIAASNQQNGEIAQLWDFNVDQFNMTPSNSSGSATISAPNSFTSDIPQY
transcriptional activation domain activity: 57300

SPDDFDQTLPLDLSDENITEVAYLPENQHSVLSSTGISNEHTKLFLILNEIIS
transcriptional activation domain activity: 63000

LLKAVQEDEGDDGVIVAYLDTLVPLLEDYLTSGPLGQFTLRLRLLLSFQVYAS
transcriptional activation domain activity: 53800

MPLMIIFRFTIFIFILFQFLSFPSFGRGVFLSFIFFFIIFFSFHDQLFLILFF
transcriptional activation domain activity: 57000

NLSLQEIVGILLRANAFRPMCKNCEHLRDKVGAHIVDCACFEYWLQLGLFIAP
transcriptional activation domain activity: 47000

MVGLVGFWVLFLFFLCPFLFSCPLPLPPLRPSLYIFQISYGSFFSCFSFLFFS
transcriptional activation domain activity: 63800

MSEPPRKRAKLACVTCNARRVKCDVTDRHPCTNCAAGNVECETRESRRGKHVR
transcriptional activation domain activity: 14300

HFPKRSFRHWVGLMFFSFLTCCTLLLQFRAAVTLTVNSHLPWITRSGLWYLVL
transcriptional activation domain activity: 68800

MIPLQVLSLIDAKNLILLLTKFFSCVALSSCLYWDSCYNLIHGYLVLYKIIYT
transcriptional activation domain activity: 59400

PSIFFLLFICYFVICSIHVDLCYYDSLFNCLFFISSMFSHNYLFFCLCLCYHV
transcriptional activation domain activity: 64200

RGAKEGARGGGENEKNEGDTGRSRAEGTRETESGAGASQQRAAREGTAGTQGR
transcriptional activation domain activity: < 6570

YADWLLEPEQNNGTWVADVLWPAINLDLQWISSHWNQSSWDLWWPPVWGGSYW
transcriptional activation domain activity: 67800

PVNFIFVKLAKVFPLDYLFMVLLIIYFFLVTLTGIITLGVRFFWITLFRIRRG
transcriptional activation domain activity: 19400

MVNCLKVFLVVLLAPIPLAPPIFLLSFLALMVVDHEPCPYCSLLIILLLQSTC
transcriptional activation domain activity: 31200

MYFIILAFVWCFCSCFCFRCVAFWWPLSLSLCLSVGIYLLAFFFFFTTLVLVY
transcriptional activation domain activity: 26200

HFILTGSDLGWVLVYFDYDDRIYIFLMEWCKLNCYWIILMYIWNILPTALLLQ
transcriptional activation domain activity: 34300

EKKAPGRRGRPPKAAAAKKAKEAAAPGEEGAKPKRPVGRPRKGTTETAEKKGA
transcriptional activation domain activity: 22300

MILWNWILEFHSQTSFTLLLFILFHFIFFAYVPLLTSCYSHLFSFSFSTVSFI
transcriptional activation domain activity: 46900

NSTPAKVEEEAEAKPEEAKPEGEEVAKEEEEKKDEEPKPAIGDVVPDAVAVGQ
transcriptional activation domain activity: 25300

VDAKFVIVANYGTACVVMGFLAVAMYCLLITVGDDIYFVGMLFSFTIIGTLMI
transcriptional activation domain activity: 29300

KIHLVNISQVVVFFVYRFLYGLIPLFEIATCAYYPLLVSLWHLDYLLFYAVMF
transcriptional activation domain activity: 48100

FATFYVARDVFHVTPNELHSIMYLHISSAPHFVIFSTRVPGFWWENMPHWLFF
transcriptional activation domain activity: 51500

MTRMLPLSFELFKFIVNLCLALVFTSWLFSWSKMLLILGLICVCRDFLSLVIV
transcriptional activation domain activity: 31700

IWVHHVAYVRNCLAQLIFTWLDEYWRPLSDACILPRLRSWVLSRFRDAQLVQG
transcriptional activation domain activity: 78700

MIISAVYITYFFSLSYLFFPLYLFIVYPFFSFLFNLLAKDTFIVDTYIIVFFA
transcriptional activation domain activity: 50600

PIMVVTLPLPAQITQYYPITLVSVLQWFAFWSFSALLTIPWLLCVYQLVTHSL
transcriptional activation domain activity: 54400

VSVSLIFFTCFLSLSLFFCVLVRVSWLSVPVPSIVFFWISFLLFCPFFPFSFF
transcriptional activation domain activity: 35700

GVDERRAIVESFVKRVTHKYLRHCDPSEPVLLLSSLVIKLIFARFWLLVYRPQ
transcriptional activation domain activity: 44900

TTAATEPTKTEAAPPAPATEPAPAAEPAAPAAEPAKEEAKPATEVKPEAPAAA
transcriptional activation domain activity: 24800

HFAGLVILGVFLMFINAIVLWPILKSFHDCKHLIKVWFFWMIYCLLFVLYIFC
transcriptional activation domain activity: 72600

DNLDLASLDPLEQSPSISMEPVSINETGSAYTTTNTALNDIDIPFSINELNEL
transcriptional activation domain activity: 64900

MIIVFVFFSLFFFLPFLFPLAFFFLFLFPFFLPSYFPSYSLRCSYEGRPSFFF
transcriptional activation domain activity: 47100

GFLLLLLLLFVFSLVVVHGIVSVSVFYQFFRPYCRFFLFYPYWFIYFLFCLLA
transcriptional activation domain activity: 58500

GQVELFTHHTSLRHIFFRLEKLGYRLVVIQLTDSFVISQPSLYISALLLALRG
transcriptional activation domain activity: 35400

MRDIIGISIFLFFSLFLFYLSFCFCMRNVNLSFSLFILTLIDCLTDLLIMVPI
transcriptional activation domain activity: 60300

IGMQLLLTWAYIRLNPFAVYSSPYIILFSFWSLGYLVLVYTLTLPSSLPFYHS
transcriptional activation domain activity: 46800

FNLYLLSWLHLLSSKSSSLGNSSAWWIRPVEITMMSCYWYIFGYLLLWCTLPT
transcriptional activation domain activity: 38200

RKSAATEEKEEKKEAPKAKRAKKAKEPEPEVEAEAEAAAEKVEEVKEKKKPGR
transcriptional activation domain activity: 24800

QLKVVRITFSGLGAVALTICPCTPVVEQLLQAVHLKVLYLVKELFVCIPPNTS
transcriptional activation domain activity: 48500

LGAIIYIYLCCHGSLTMVDLCTLLALNILNNVDGQCTRILCWWVSFAWCMYPG
transcriptional activation domain activity: 58800

MPAVKKDAPSQRQQDKESKRARGALSCAECRRLKLKCDKTVPCSSCKRRGCSA
transcriptional activation domain activity: 34600

LDAVSSFNSSSVKSNFASKVNTQLNLLQHSSSNSNFLDASPYDFNKIFMNNFE
transcriptional activation domain activity: 62000

MSENVDPPSPHDKSEAPTKRGRGRPKGSKNKSAAAGAVEQEDPAPVIPRKRRL
transcriptional activation domain activity: 36300

AGGGRKAKATQTGAGASRQKTKTGFQTGRSRRAGNAKTKTNRRAINKPRNGDS
transcriptional activation domain activity: 28900

MHITCPRLWGHCSWCVVLPFIFHTFLYCIPTFCCFLVHISAILFIGFSFLGSL
transcriptional activation domain activity: 55600
